Data reported in PMC9838835 (PLOS ONE, 2023).

Target: the molecule itself
Assay: native gel or EMSA

B1: Human butyrylcholinesterase (enzyme, UniProt P06276 29-602, looked up)
chain: EDDIIIATKNGKVRGMNLTVFGGTVTAFLGIPYAQPPLGRLRFKKPQSLTKWSDIWNATKYANSCCQNIDQSFPGFHGSEMWNPNTDLSEDCLYLNVWIPAPKPKNATVLIWIYGGGFQTGTSSLHVYDGKFLARVERVIVVSMNYRVGALGFLALPGNPEAPGNMGLFDQQLALQWVQKNIAAFGGNPKSVTLFGESAGAASVSLHLLSPGSHSLFTRAILQSGSFNAPWAVTSLYEARNRTLNLAKLTGCSRENETEIIKCLRNKDPQEILLNEAFVVPYGTPLSVNFGPTVDGDFLTDMPDILLELGQFKKTQILVGVNKDEGTAFLVYGAPGFSKDNNSIITRKEFQEGLKIFFPGVSEFGKESILFHYTDWVDDQRPENYREALGDVVGDYNFICPALEFTKKFSEWGNNAFFYYFEHRSSKLPWPEWMGVMHGYEIEFVFGLPLERRDNYTKAEEILSRSIVKRWANFAKYGNPNETQNNSTSWPVFKSTEQKYLTLNTESTRIMTKLRAQQCRFWTSFFPKVLEMTGNIDEAEWEWKAGFHRWNNYMMDWKNQFNDYTSKKESCVGL
notes: also called BChE; C4 (tetramer)
stoichiometry N: 4
